# Reference: US20250145722A1 (TRUEBINDING, published 2025)
# B1: TB001 (antibody, IgG4, V domains shown)
# VH: QVQLVQSGSELKKPGASVKVSCKASGYTFTNYGMNWVRQAPGQGLKWMGWINTNTGEPTYVEEFTGRFVFSLETSVSTAYLQISSLKAEDTAVYFCAPYDNFFAYWGQGTTVTVSS
# VL: DIVLTQSPLSLPVTPGEPASISCRSSKSLLYKDGKTYLNWFLQKPGQSPQLLIYLMSTHASGVPDRFSGSGSGTDFTLKISRVEAEDVGVYYCQQLVDYPLTFGGGTKLEIKR
# notes: also called IMT001; IMT001-4
# B2: recombinant human TREM2 protein (Sino Biological, 11084-H08H) (receptor, UniProt Q9NZC2 19-174, looked up)
# chain: HNTTVFQGVAGQSLQVSCPYDSMKHWGRRKAWCRQLGEKGPCQRVVSTHNLWLLSFLRRWNGSTAITDDTLGGTLTITLRNLQPHDAGLYQCQSLHGSEADTLRKVLVEVLADPLDHRDAGDLWFPGESESFEDAHVEHSISRSLLEGEIPFPPTS
# notes: Detected with anti-6x His tag antibody, so His-tagged; tag not described
# B3: recombinant human TNF sRI (R&D Systems, 372-RI/CF) (receptor, UniProt P19438 30-211, looked up)
# chain: LVPHLGDREKRDSVCPQGKYIHPQNNSICCTKCHKGTYLYNDCPGPGQDTDCRECESGSFTASENHLRHCLSCSKCRKEMGQVEISSCTVDRDTVCGCRKNQYRHYWSENLFQCFNCSLCLNGTVHLSCQEKQNTVCTCHAGFFLRENECVSCSNCKKSLECTKLCLPQIENVKGTEDSGTT
# notes: Detected with anti-human IgG
# B4: 6H6.2D6 (antibody, human IgG4 S228P, kappa, V domains shown)
# VH: QIQLVQSGPELKKPGETVKISCKASGYTFTTYGMSWVKQAPGKGLKWMAWINTYSGVPTYADDFKGRFAFSLETSASTAYLQINNLTNEDTATYFCARGPYAMDYWGQGTSVTVSS
# VL: DIQMTQTTSSLSASLGDRVTISCSASQGISNYLNWYQQKPDGTVKLLIYYTSSLHSGVPSRFSGSGSGTDYSLTISNLEPEDIATYYCQQYSELPYTFGSGTKLEIKR
# Assays:
# [1] = molecular target: T1, human Galectin-3 (Gal3), full-length recombinant (human, UniProt P17931 2-250); experiment: blocking ELISA, Gal3 coated, biotin-TGFβR2
# T1 construct: treated here as one molecule; also called hGAL3; hGal3
# [2] = molecular target: T1, human Galectin-3 (Gal3), full-length …; experiment: titration of the antibody on a panel of galectins, read as OD450; set-up not given, species of the galectins not given
# [3] = molecular target: T1, human Galectin-3 (Gal3), full-length …; experiment: blocking ELISA, Gal3 coated, biotin-Abeta42 oligomer
# [4] = molecular target: T1, human Galectin-3 (Gal3), full-length …; experiment: blocking ELISA, Gal3 coated, biotin-Abeta42 peptide
# [5] = molecular target: T1, human Galectin-3 (Gal3), full-length …; experiment: blocking ELISA, Gal3 coated, biotin-TLR4
# [6] = molecular target: T1, human Galectin-3 (Gal3), full-length …; experiment: blocking ELISA, Gal3 coated, biotin-APP695
# [7] = molecular target: T1, human Galectin-3 (Gal3), full-length …; experiment: blocking ELISA, Gal3 coated, TREM2-His
# [8] = molecular target: T1, human Galectin-3 (Gal3), full-length …; experiment: cell-based or functional assay
# [9] = molecular target: T1, human Galectin-3 (Gal3), full-length …; experiment: not stated (FIG. 50)
# [10] = molecular target: mouse Gal3 (mouse, UniProt P16110 2-264, limits assumed); experiment: not stated (FIG. 50)
# [11] = molecular target: T1, human Galectin-3 (Gal3), full-length …; experiment: ELISA: Gal3 coated, His-tagged TREM2 detected with anti-6xHis-HRP; concentrations of the bars not printed on the sheet
# [12] = molecular target: T1, human Galectin-3 (Gal3), full-length …; experiment: ELISA: Gal3 coated at 2 or 3 µg/ml, protein at 2 or 3 µg/ml, anti-human IgG-HRP, A450
# [13] = molecular target: T1, human Galectin-3 (Gal3), full-length …; experiment: blocking ELISA, Gal3 coated, VEGFR3-Fc, antibody 20 µg/ml
# [14] = molecular target: T1, human Galectin-3 (Gal3), full-length …; experiment: Gator biosensor kinetics (legend: SPR), 6H6 mIgG2a loaded on probes, rhGalectin-3 as analyte, 1:1 fit
# [15] = molecular target: T1, human Galectin-3 (Gal3), full-length …; experiment: blocking ELISA, Gal3 coated, PDGFR alpha-Fc, antibody 20 µg/ml
# [16] = molecular target: T1, human Galectin-3 (Gal3), full-length …; experiment: blocking ELISA, Gal3 coated, EGFR-Fc, antibody 20 µg/ml
# [17] = molecular target: T1, human Galectin-3 (Gal3), full-length …; experiment: Gator biosensor kinetics, antibody loaded on probe, rhGal3-His in solution, 1:1 fit
# [18] = molecular target: T1, human Galectin-3 (Gal3), full-length …; experiment: blocking ELISA, Gal3 coated, PDGFR beta-Fc, antibody 20 µg/ml
# T1 sequence (P17931 2-250 limits assumed): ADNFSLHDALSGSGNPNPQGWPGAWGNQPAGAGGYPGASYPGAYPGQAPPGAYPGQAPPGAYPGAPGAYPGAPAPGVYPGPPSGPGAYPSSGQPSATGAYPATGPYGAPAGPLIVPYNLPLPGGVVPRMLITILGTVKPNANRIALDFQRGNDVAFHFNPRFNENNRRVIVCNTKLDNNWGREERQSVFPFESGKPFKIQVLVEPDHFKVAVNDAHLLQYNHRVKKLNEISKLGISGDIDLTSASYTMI
# mouse Gal3, sequence (P16110 2-264 limits assumed): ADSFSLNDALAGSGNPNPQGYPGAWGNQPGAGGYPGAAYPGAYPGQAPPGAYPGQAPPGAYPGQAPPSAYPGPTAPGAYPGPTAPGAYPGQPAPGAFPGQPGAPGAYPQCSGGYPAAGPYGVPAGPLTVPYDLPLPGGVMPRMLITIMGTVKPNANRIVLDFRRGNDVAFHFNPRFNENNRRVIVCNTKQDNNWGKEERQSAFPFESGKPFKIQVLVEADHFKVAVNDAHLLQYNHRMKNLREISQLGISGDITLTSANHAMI
binder,measurement,setting,value
B1,IC50,[1],12.8 nM
same,EC50 (read off the curve),[2],~7 ng/mL
same,% blocking of Gal3-Abeta42 oligomer binding,[3],> 90%
same,IC50,[3],3.17 nM
same,% blocking of Gal3-Abeta42 peptide binding,[4],> 90%
same,% blocking of Gal3-TLR4 binding,[5],> 90%
same,% blocking of Gal3-APP695 binding,[6],> 90%
same,% blocking of Gal3-TREM2 binding,[7],> 90%
same,IC50 of TGF-β-induced pro-collagen production in LX-2 cells,[8],0.25 µg/mL
same,Kd,[9],3.6 nM
same,Kd,[10],2.3 nM
B2,binding result,[11],binds
B3,binding result,[12],binds
B4,% blocking of Gal3-VEGFR3 binding,[13],> 70%
same,koff,[14],0.000299 s⁻¹
same,kon,[14],88000 M⁻¹ s⁻¹
same,% blocking of Gal3-PDGFR alpha binding,[15],> 70%
same,% blocking of Gal3-EGFR binding,[16],> 70%
same,Kd,[17],3.39 nM
same,% blocking of Gal3-PDGFR beta binding,[18],> 70%
